* marks the point of attachment. αGalNAc = CC(=O)N[C@@H]1[C@@H](O)[C@@H](O)[C@@H](CO)O[C@@H]1*
Columns and labels:
[1] = molecular target: T1, A-MUC2 (SMILES …); assay: glycopeptide microarray, antibody at 50 ug/mL
T1 construct: also called Ac-PT*TTPLK-NH2
T1 peptide: Ac-PT(αGalNAc)TTPLK-NH2
Experimental: (§1) With concentrations adjusted to 100 μM in printing buffer (300 mM sodium phosphates, pH 8.5), 0.33 nL of each solution was spotted using a piezoelectric printer. The microarray was printed in spot replicates of 6. Arrays were interrogated with monoclonal anti-Tn antibodies 2F3 parent, 2F3V variant 6, or 2F3 variant 17-2 and detected with fluorescently labeled secondary antibodies and streptavidin as noted. Scanning and quantification were performed with ProScanArray scanner and ScanArray Express software (Perkin-Elmer). The assay examined a panel of ˜50 Tn glycopeptides and addressed whether spacing, number of Tn modifications, specific residues modified, or sequence context contributed to the specificity of binding by 2F3. […] Ser-Tn near free termini and multiple Ser-Tn in a single peptide increased binding. Using the 2F3 parent antibody (“parent”), Variant 6 and Variant 17, the binding of the antibodies to a panel of different glycoproteins was assayed to determine the preferred Tn context recognized by 2F3 and the 2F3G1 variants. […] Importantly, modification to Thr residues gave rise to little to no binding. […] Furthermore, binding was observed not only to peptides that contained Ser-Tn, but specifically those that were at least 5 amino acids from the attachment point to the solid matrix. Ser-Tn near free termini and multiple Ser-Tn in a single peptide increased binding.
(§2) The antibodies were applied to glycopeptide arrays at a concentration of 5 ug/mL (no data shown form this group) or 50 ug/mL (data shown in bar chart and in the table 9).

[2] = molecular target: T2, B-MUC2 (SMILES …); assay: glycopeptide microarray, antibody at 50 ug/mL
T2 construct: also called Ac-PTT*TPLK-NH2
T2 peptide: Ac-PTT(αGalNAc)TPLK-NH2
Experimental: as §1, §2

[3] = molecular target: T3, C-MUC2 (SMILES …); assay: glycopeptide microarray, antibody at 50 ug/mL
T3 construct: also called Ac-PTTT*PLK-NH2
T3 peptide: Ac-PTTT(αGalNAc)PLK-NH2
Experimental: as §1, §2

[4] = molecular target: T4, D-MUC2 (SMILES …); assay: glycopeptide microarray, antibody at 50 ug/mL
T4 construct: also called Ac-PT*T*TPLK-NH2
T4 peptide: Ac-PT(αGalNAc)T(αGalNAc)TPLK-NH2
Experimental: as §1, §2

[5] = molecular target: T5, E-MUC2 (SMILES …); assay: glycopeptide microarray, antibody at 50 ug/mL
T5 construct: also called Ac-PT*TT*PLK-NH2
T5 peptide: Ac-PT(αGalNAc)TT(αGalNAc)PLK-NH2
Experimental: as §1, §2

[6] = molecular target: T6, F-MUC2 (SMILES …); assay: glycopeptide microarray, antibody at 50 ug/mL
T6 construct: also called Ac-PTT*T*PLK-NH2
T6 peptide: Ac-PTT(αGalNAc)T(αGalNAc)PLK-NH2
Experimental: as §1, §2

[7] = molecular target: T7, G-MUC2 (SMILES …); assay: glycopeptide microarray, antibody at 50 ug/mL
T7 construct: also called Ac-PT*T*T*PLK-NH2
T7 peptide: Ac-PT(αGalNAc)T(αGalNAc)T(αGalNAc)PLK-NH2
Experimental: as §1, §2

[8] = molecular target: T8, a-Dystroglycan peptide (no Tn); assay: glycopeptide microarray, antibody at 50 ug/mL
T8 construct: Unmodified control of the a-Dystroglycan glycopeptide
T8 peptide: Ac-PPTTTTKKP-NH2
Experimental: as §1, §2

[9] = molecular target: T9, MUC5AC (SMILES …); assay: glycopeptide microarray, antibody at 50 ug/mL
T9 peptide: H-GTTPSPVPT(αGalNAc)TSTTSAP-OH
Experimental: as §1, §2

[10] = molecular target: T10, EA2 (SMILES …); assay: glycopeptide microarray, antibody at 50 ug/mL
T10 construct: also called Ac-PTTDSTT*PAPTTK-NH2
T10 peptide: Ac-PTTDSTT(αGalNAc)PAPTTK-NH2
Experimental: as §1, §2

[11] = molecular target: T11, EA2-R; assay: glycopeptide microarray, antibody at 50 ug/mL
T11 peptide: Ac-PTTDSTTPAPTTK-NH2
Experimental: as §1, §2

[12] = molecular target: T12, a-Dystroglycan glycopeptide (four Tn) (SMILES …); assay: glycopeptide microarray, antibody at 50 ug/mL
T12 construct: also called Ac-PPT*T*T*T*KKP-HN2
T12 peptide: Ac-PPT(αGalNAc)T(αGalNAc)T(αGalNAc)T(αGalNAc)KKP-NH2
Experimental: as §1, §2

[13] = molecular target: T13, MUC1-1 (SMILES …); assay: glycopeptide microarray, antibody at 50 ug/mL
T13 construct: also called H2N-TSAPDT*RDAP-NH2
T13 peptide: H-TSAPDT(αGalNAc)RDAP-NH2
Experimental: as §1, §2

[14] = molecular target: T14, MUC1-1R; assay: glycopeptide microarray, antibody at 50 ug/mL
T14 peptide: H-TSAPDTRDAP-NH2
Experimental: as §1, §2

[15] = molecular target: T15, MUC1-2 (SMILES …); assay: glycopeptide microarray, antibody at 50 ug/mL
T15 construct: also called H2N-APGS*T*APP-NH2
T15 peptide: H-APGS(αGalNAc)T(αGalNAc)APP-NH2
Experimental: as §1, §2

[16] = molecular target: T16, MUC1-2R; assay: glycopeptide microarray, antibody at 50 ug/mL
T16 peptide: H-APGSTAPP-NH2
Experimental: as §1, §2

[17] = molecular target: T17, Peptide-4; assay: glycopeptide microarray, antibody at 50 ug/mL
T17 construct: also called H2N-KTTT-CONH2
T17 peptide: H-KTTT-NH2
Experimental: as §1, §2

[18] = molecular target: T18, Peptide-5; assay: glycopeptide microarray, antibody at 50 ug/mL
T18 construct: also called H2N-KTTTG-CONH2
T18 peptide: H-KTTTG-NH2
Experimental: as §1, §2

[19] = molecular target: T19, IgA-Pep02; assay: glycopeptide microarray, antibody at 50 ug/mL
T19 peptide: H-KPVPSTPPTPSC-OH
Experimental: as §1, §2

[20] = molecular target: T20, IgA-Pep03 (SMILES …); assay: glycopeptide microarray, antibody at 50 ug/mL
T20 construct: also called H2N-KPVPS*TPPTPSC-OH
T20 peptide: H-KPVPS(αGalNAc)TPPTPSC-OH
Experimental: as §1, §2

[21] = molecular target: T21, IgA-Pep07; assay: glycopeptide microarray, antibody at 50 ug/mL
T21 peptide: H-KTPPTPSPSTPC-OH
Experimental: as §1, §2

[22] = molecular target: T22, IgA-Pep08 (SMILES …); assay: glycopeptide microarray, antibody at 50 ug/mL
T22 peptide: H-KTPPTPSPST(αGalNAc)PC-OH
Experimental: as §1, §2

[23] = molecular target: T23, IgA-Pep10; assay: glycopeptide microarray, antibody at 50 ug/mL
T23 peptide: H-KPSPSTPPTPSC-OH
Experimental: as §1, §2

[24] = molecular target: T24, IgA-Pep13 (SMILES …); assay: glycopeptide microarray, antibody at 50 ug/mL
T24 construct: also called H2N-KPS*TPPT*PSPSC-OH
T24 peptide: H-KPS(αGalNAc)TPPT(αGalNAc)PSPSC-OH
Experimental: as §1, §2

[25] = molecular target: T25, IgA-Pep16 (SMILES …); assay: glycopeptide microarray, antibody at 50 ug/mL
T25 peptide: H-KPSTPPTPS(αGalNAc)PSC-OH
Experimental: as §1, §2

[26] = molecular target: T26, IgA-Pep18 (SMILES …); assay: glycopeptide microarray, antibody at 50 ug/mL
T26 peptide: H-KPST(αGalNAc)PPTPSPSC-OH
Experimental: as §1, §2

[27] = molecular target: T27, IgA-Pep05; assay: glycopeptide microarray, antibody at 50 ug/mL; spot IgA-Pep05
T27 construct: also called IgA-Pep12; IgA-Pep14
T27 peptide: H-KPSTPPTPSPSC-OH
Experimental: as §1, §2

[28] = molecular target: T27, IgA-Pep05; assay: glycopeptide microarray, antibody at 50 ug/mL; spot IgA-Pep12
Experimental: as §1, §2

[29] = molecular target: T27, IgA-Pep05; assay: glycopeptide microarray, antibody at 50 ug/mL; spot IgA-Pep14
Experimental: as §1, §2

B1: 2F3 parent antibody (antibody, V domains shown)
VH: QITLRESGGGLVQPGGSLRLSCAASGFTFDSYAMSWVRQAPGKGLEWVSAISGSGDSTYYADSVKGRFSISRDNSKNTLYLQMNSLRAEDTAVYYCAIRREYSGYAPFDYWGQGTLVTVSS
VL: DIVMTQTPSSLSASVGDRVTITCRASQGISSWLAWYQQKPEKAPRSLIYAASSLQSGVPSRFSGSGSGTDFTLTISSLQPEDFATYYCQQYISYPYTFGQGTKLEIK
notes: Only variable domains are used here; V genes were cloned into human IgG1 (or IgG3)/kappa; also called 2F3 Original; original 2F3 parent
- RLU [1]: 45 RLU
- RLU [2]: 19 RLU
- RLU [3]: 9 RLU
- RLU [4]: 12 RLU
- RLU [5]: 8 RLU
- RLU [6]: 11 RLU
- RLU [7]: 10 RLU
- RLU [8]: 37 RLU
- RLU [9]: 23 RLU
- RLU [10]: 11 RLU
- RLU [11]: 15 RLU
- RLU [12]: 24 RLU
- RLU [13]: 11 RLU
- RLU [14]: 7 RLU
- RLU [15]: 33 RLU
- RLU [16]: 4 RLU
- RLU [17]: 7 RLU
- RLU [18]: 10 RLU
- RLU [19]: 26 RLU
- RLU [20]: 58 RLU
- RLU [21]: 20 RLU
- RLU [22]: 22 RLU
- RLU [23]: 19 RLU
- RLU [24]: 40 RLU
- RLU [25]: 115 RLU
- RLU [26]: 16 RLU
- RLU [27]: 28 RLU
- RLU [28]: 20 RLU
- RLU [29]: 43 RLU

B2: 2F3 variant #17v2 (antibody, IgG1, V domains shown)
VH: QITLRESGGGLVQPGGSLRLSCAASGFTFDSYAMSWVRQAPGKGLEWVSAISGSGHSTYYADSVKGRFSISRDNSKNTLYLQMNNLRAEDTAVYYCAIRREYSGYAPFDYWGQGTLVTVSS
VL: DIVMTQTPSSLSASVGDRVTITCRASQGISSWLAWYQQKPEKAPRSLIYAASSLQSGVPSRFSGSGSGTDFTLTISSLQPEDFATYYCQQYISYPYTFGQGTKLEIK
notes: IgG1, kappa, wild type 2F3 light chain; also called 2F3#17V2; 2F3#17v2
- RLU [1]: 65 RLU
- RLU [3]: 30 RLU
- RLU [5]: 87 RLU
- RLU [6]: 70 RLU
- RLU [7]: 51 RLU
- RLU [8]: 86 RLU
- RLU [9]: 87 RLU
- RLU [10]: 16 RLU
- RLU [11]: 29 RLU
- RLU [12]: 51 RLU
- RLU [13]: 61 RLU
- RLU [14]: 19 RLU
- RLU [16]: 6 RLU
- RLU [17]: 33 RLU
- RLU [18]: 41 RLU
- RLU [19]: 75 RLU
- RLU [21]: 144 RLU
- RLU [22]: 282 RLU
- RLU [23]: 125 RLU
- RLU [26]: 174 RLU
- RLU [27]: 149 RLU
- RLU [28]: 457 RLU
- RLU [29]: 112 RLU

B3: 2F3 variant #6 (antibody, IgG1, V domains shown)
VH: QVQLLESGGGLVQPGGSLRLSCAASGFTFDSYAMSWVRQAPGKGLEWVSAISGSGASTYYADSVKGRFSISRDNSKNTLYLQMNSLRAEDTAVYYCAIRREYSGYAPFDYWGQGTLVIVSS
VL: DIVMTQTPSSLSASVGDRVTITCRASQGISSWLAWYQQKPEKAPRSLIYAASSLQSGVPSRFSGSGSGTDFTLTISSLQPEDFATYYCQQYISYPYTFGQGTKLEIK
notes: Mutant heavy chain in an IgG expression vector, co-expressed with the wild type 2F3 light chain (IgG1, kappa); also called 2F3#6; clone 6
- RLU [1]: 55 RLU
- RLU [2]: 23 RLU
- RLU [3]: 22 RLU
- RLU [4]: 12 RLU
- RLU [5]: 27 RLU
- RLU [6]: 54 RLU
- RLU [7]: -39 RLU
- RLU [8]: -4 RLU
- RLU [9]: -14 RLU
- RLU [10]: 18 RLU
- RLU [11]: 45 RLU
- RLU [12]: 28 RLU
- RLU [13]: 14 RLU
- RLU [14]: 7 RLU
- RLU [15]: 59 RLU
- RLU [16]: 0 RLU
- RLU [17]: 31 RLU
- RLU [18]: -6 RLU
- RLU [19]: 35 RLU
- RLU [21]: 30 RLU
- RLU [22]: -6 RLU
- RLU [23]: -127 RLU
- RLU [26]: 22 RLU
- RLU [27]: 60 RLU
- RLU [28]: 83 RLU
- RLU [29]: 38 RLU

Reference: patent US20190111164A1 (Boehringer Ingelheim, published 2019)
